In patent US9067983B2, “Anti-inflammatory antibodies and uses therefor” (DecImmune Therapeutics, Inc., priority 2009, dated 2015):

Tests used:
[1] = system: B6 mice; experiment: murine myocardial infarction model (1 h LAD occlusion, 24 h reperfusion); assay type: in vivo, mouse; settings: pretreatment with 100 ugs of Fab'2 fragment (Fc removed)
Method: (§1) A panel of mouse hybridomas were prepared to identify the N2 region of non-muscle myosin II heavy chain. Thus, mice were immunized with the N2 peptide (Ac-LMKNMDPLNDNV (SEQ ID NO: 33)) coupled to a carrier protein (KLH). This region (N2) is highly conserved and identical in mouse and man. […] 12A6 is a IgG2b isotype. Its VH most closely matches the germ line gene 3609.11.169 sequence paired with DH: DSP2/DFL16.1 and its light chain is a V kappa 8-27 with JK1. 21G6 is an IgG1 isotype with its VH matching J558.35; DH: DSP2.6/DSP2.4/DSP2.3 and JH: JH3. Its light chain is V kappa hf24 and JK4.
B6 mice were subjected to 1 h LAD occlusion followed by 24 h reperfusion. […] Following reperfusion, both serum troponin-I levels (A) and mouse IgM deposition (B) were analyzed and statistical significance for each was evaluated by Student's t test (FIG. 3).
[…] Serum troponin-I levels were measured after 24 h reperfusion.

[2] = target: N2 peptide (N2 region of non-muscle myosin II heavy chain) (Mus musculus, UniProt Q61879); experiment: binding of hybridoma antibodies to the N2 peptide in vitro
Method: as §1

[3] = system: N2 self-peptide; experiment: binding of anti-N2 antibody in vivo in heart after LAD occlusion and reperfusion (confocal microscopy); parameters: species or system mouse; settings: B6 mice
Method: Specificity of the anti-N2 antibody. B6 mice were injected i.v. with fluorescently-labeled anti-N2 antibody (12A6) and anti-CD31 antibody prior to 60 min LAD occlusion and 30 min reperfusion. Following treatment, hearts were collected, fixed, and analyzed by confocal microscopy. The area at risk (left ventricle) was compared with the non-risk area (right ventricle). Quantification of the individual antibody staining as well as the merged images both in the area at risk and non-risk area is shown in FIG. 5.

binding to the N2 peptide in vitro [2]: bind the N2 peptide
B1: 21G6: murine anti-N2 IgG1 produced by hybridoma PTA-9393; VH SEQ ID NO: 14, VL SEQ ID NO: 20 (antibody, listed as Mus sp., V domains shown)
VH: QVQLQESGAELVKPGASVKLSCKASGYTFTSYYMYWVKQRPGQGLEWIGGINPSNGGTNFNEKFKSKATLTVDKSSSTAYMQLSSLTSEDSAVYYCTRWGYDREWFAYWGQGTLVTVSA
VL: DIVMTQAAPSVPVTPGESVSISCRSSKSLLHSNGNTYLYWFLQRPGQSPQVLIYRMSNLASGVPDRFSGSGSGTAFTLRISRVEAEDVGVYYCMQHLEYPFTFGSGTKLEIKR
ischemia reperfusion injury [1]: blocks ischemia reperfusion injury | binding to the N2 self-peptide in vivo [3]: bind the N2 peptide
